Consider two molecules from patent US20240209078A1 (Amgen, published 2024).

Changes are numbered by the printed parent chain. Names and notes keep the numbering of the source. Like-named read-outs stand apart in the source and are kept apart here.

The target of experiment [1] is T1, human CDH3 (Cadherin-3, P-Cadherin) (human, UniProt P22223 108-829). Kind of experiment: cell-based or functional assay.
The target of experiment [2] is T1, human CDH3 (Cadherin-3, P-Cadherin). Kind of experiment: cell-based or functional assay. This is another data set of the same source.
Experiment [3] deals with T2, mouse MSLN protein (mouse, UniProt Q61468 298-600).
T2 construct: whole, on cells; also called full-length mouse MSLN
T2 sequence (looked up): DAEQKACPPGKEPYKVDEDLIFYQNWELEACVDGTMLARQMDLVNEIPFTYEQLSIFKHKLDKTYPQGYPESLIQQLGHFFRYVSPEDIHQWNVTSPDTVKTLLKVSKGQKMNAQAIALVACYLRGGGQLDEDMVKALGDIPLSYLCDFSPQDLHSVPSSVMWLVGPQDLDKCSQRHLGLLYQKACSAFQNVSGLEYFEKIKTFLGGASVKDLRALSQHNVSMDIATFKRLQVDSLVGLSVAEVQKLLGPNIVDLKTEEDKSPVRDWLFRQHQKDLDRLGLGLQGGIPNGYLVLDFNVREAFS
Kind of experiment: flow cytometry on transfected CHO cells. (In flow cytometry, cells or beads pass a laser one at a time.)

Experiment [4] addresses T1, human CDH3 (Cadherin-3, P-Cadherin). The experiment in a line: cell-based or functional assay. The source holds these as a separate data set.
For experiment [5] the target is unchanged. Kind of experiment: cell-based or functional assay. This is another data set of the same source.
Experiment [6] shares this target. Kind of experiment: cell-based or functional assay. This is another data set of the same source.
For experiment [7] the target is unchanged. Kind of experiment: cell-based or functional assay. This is another data set of the same source.
The target is the same in experiment [8]. The experiment in a line: cell-based or functional assay. This is another data set of the same source.

B1: CH3 15-E11 VAG CC×I2L×G4×scFc×MS 15-B12 CC×I2L clipopt ID (SEQ ID NO 434) (bispecific antibody)
chain: QVQLVQSGAEVKKPGASVKVSCKASGYTFTNYWMNWVRQAPGQCLEWMGNIAYGVAGTNYNQKFQGRVTMTVDTSSSTAYMELSRLRSDDTAVYYCATRYFYVMDYWGQGTLVTVSSGGGGQGGGGQGGGGQDIQMTQSPSSLSASVGDRVTITCRASQDISNYLNWYQQKPGKVPKLLIYYTSRLHSGVPSRFSGSGSGTDFTLTISSLQPEDVATYYCVQYAQFPLTFGCGTKVEIKSGGGGQEVQLVESGGGLVQPGGSLKLSCAASGFTFNKYAMNWVRQAPGKGMEWVARIRSKYNNYATYYADAVKDRFTISRDDSKNTLYLQMNNLKTEDTAVYYCVRAGNFGSSYISYFAYWGQGTLVTVSSGGGGQGGGGQGGGGQQTVVTQEPSLTVSPGGTVTITCGSSTGAVTSGNYPNWIQKKPGQAPRGLIGGTKFLAPGTPARFSGSLEGGKAALTLSGVQPEDEAEYYCVLYYSNRWVFGSGTKLTVLGGGGCPPCPAPELLGGPSVFLFPPKPKDTLMISRTPEVTCVVVDVSHEEPEVKFNWYVDGVEVHNAKTKPCEEQYGSTYRCVSVLTVLHQDWLNGKEYKCKVSNKALPAPIEKTISKAKGQPREPQVYTLPPSREEMTKNQVSLTCLVKGFYPSDIAVEWESNGQPENNYKTTPPVLDSDGSFFLYSKLTVDKSRWQQGNVFSCSVMHEALHNHYTQKSLSLSPGKGGGGQGGGGQGGGGQGGGGQGGGGQGGGGQCPPCPAPELLGGPSVFLFPPKPKDTLMISRTPEVTCVVVDVSHEEPEVKFNWYVDGVEVHNAKTKPCEEQYGSTYRCVSVLTVLHQDWLNGKEYKCKVSNKALPAPIEKTISKAKGQPREPQVYTLPPSREEMTKNQVSLTCLVKGFYPSDIAVEWESNGQPENNYKTTPPVLDSDGSFFLYSKLTVDKSRWQQGNVFSCSVMHEALHNHYTQKSLSLSPGKGGGGQVQLQESGPGLVKPSETLSLTCTVSGGSISSSSYFWGWIRQPPGKCLEWIGNIYYSGSSNYNPSLKSRVTISVDTSKNQFSLKLSSVTAADTAVYYCARLPRGDRDAFDIWGQGTMVTVSSGGGGQGGGGQGGGGQDIVMTQSPSSLSASVGDRVTITCRASQGISNYLAWYQQKPGKVPKLLIYAASTLQSGVPSRFSGSGSGTDFTLTISSLQPEDFATYYCQQSYSTPFTFGCGTKVEIKSGGGGQEVQLVESGGGLVQPGGSLKLSCAASGFTFNKYAMNWVRQAPGKGMEWVARIRSKYNNYATYYADAVKDRFTISRDDSKNTLYLQMNNLKTEDTAVYYCVRAGNFGSSYISYFAYWGQGTLVTVSSGGGGQGGGGQGGGGQQTVVTQEPSLTVSPGGTVTITCGSSTGAVTSGNYPNWIQKKPGQAPRGLIGGTKFLAPGTPARFSGSLEGGKAALTLSGVQPEDEAEYYCVLYYSNRWVFGSGTKLTVL
notes: single-chain multitargeting CDH3 x CD3 - scFc - MSLN x CD3 engager; also called K3T
With B1, the “cytotoxicity EC50, GSU KO MSLN cells” value in experiment [1] was determined as 0.245 nM. The “cytotoxicity EC50, HCT 116 KO MSLN cells” value in experiment [2] worked out at 0.0015 nM. For the same molecule, the binding result in experiment [3] is “no binding (tested: 5 µg/mL)”.

B2: CH3 15-E11 CC×I2L×G4×scFc×G4×MS 15-B12 CC×I2L_GQ (SEQ ID NO 251) (bispecific antibody)
chain: B1 chain with A56K
notes: single-chain multitargeting engager; also called F5Q
Turning to B2, in experiment [3], the binding result is reported as “no binding (tested: 5 µg/mL)”. Besides, in experiment [4], the “cytotoxicity EC50, E:T ratio 1:1, GSU KO MSLN cells” value was 0.322 nM; the “cytotoxicity EC50, E:T ratio 1:2, GSU KO MSLN cells” value amounted to 0.341 nM; the “cytotoxicity EC50, E:T ratio 10:1, GSU KO MSLN cells” value amounted to 0.098 nM. The “cytotoxicity EC50, HCT 116 KO MSLN cells” value in experiment [5] was found to be 0.0087 nM. In addition, the “cytotoxicity EC50, HCT 116 KO MSLN cells” value in experiment [6] stood at 0.0087 nM. In addition, the “cytotoxicity EC50, GSU KO MSLN cells” value in experiment [7] was determined as 3.24 nM. For the same molecule, the “cytotoxicity EC50, GSU KO MSLN cells” value in experiment [8] stood at 3.24 nM.
